Reference: IntAct's records for PubMed 20190753

B1: Vacuolar protein sorting-associated protein 33B (Homo sapiens), Q9H267 (parent)
chain: MAFPHRPDAPELPDFSMLKRLARDQLIYLLEQLPGKKDLFIEADLMSPLDRIANVSILKQHEVDKLYKVENKPALSSNEQLCFLVRPRIKNMRYIASLVNADKLAGRTRKYKVIFSPQKFYACEMVLEEEGIYGDVSCDEWAFSLLPLDVDLLSMELPEFFRDYFLEGDQRWINTVAQALHLLSTLYGPFPNCYGIGRCAKMAYELWRNLEEEEDGETKGRRPEIGHIFLLDRDVDFVTALCSQVVYEGLVDDTFRIKCGSVDFGPEVTSSDKSLKVLLNAEDKVFNEIRNEHFSNVFGFLSQKARNLQAQYDRRRGMDIKQMKNFVSQELKGLKQEHRLLSLHIGACESIMKKKTKQDFQELIKTEHALLEGFNIRESTSYIEEHIDRQVSPIESLRLMCLLSITENGLIPKDYRSLKTQYLQSYGPEHLLTFSNLRRAGLLTEQAPGDTLTAVESKVSKLVTDKAAGKITDAFSSLAKRSNFRAISKKLNLIPRVDGEYDLKVPRDMAYVFGGAYVPLSCRIIEQVLERRSWQGLDEVVRLLNCSDFAFTDMTKEDKASSESLRLILVVFLGGCTFSEISALRFLGREKGYRFIFLTTAVTNSARLMEAMSEVKA
partner: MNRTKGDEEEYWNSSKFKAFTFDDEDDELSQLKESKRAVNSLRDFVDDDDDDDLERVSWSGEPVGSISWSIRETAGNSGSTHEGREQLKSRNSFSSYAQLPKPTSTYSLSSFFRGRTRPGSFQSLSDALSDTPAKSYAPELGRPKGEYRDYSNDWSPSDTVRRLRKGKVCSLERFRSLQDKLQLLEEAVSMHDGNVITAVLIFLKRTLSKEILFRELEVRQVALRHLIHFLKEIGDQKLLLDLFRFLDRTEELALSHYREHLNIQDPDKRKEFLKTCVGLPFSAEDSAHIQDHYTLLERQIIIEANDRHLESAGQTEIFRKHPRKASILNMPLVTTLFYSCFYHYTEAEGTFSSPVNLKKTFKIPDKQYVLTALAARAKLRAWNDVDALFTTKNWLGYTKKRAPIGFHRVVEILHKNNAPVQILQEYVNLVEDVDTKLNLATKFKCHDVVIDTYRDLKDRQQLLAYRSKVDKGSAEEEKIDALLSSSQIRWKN

Variants of: B1
Conditions: with spe39_human VIPAS39, Q9H9C1

| effect of a mutation on the interaction | Variant |
| --- | --- |
| decreasing interaction | L30P |
